The record followed here is PMC3893232.

Series [1] in a line: SEC. Background: SEC sorts molecules by how far they enter the pores of the column.
Series [2] is described as follows: SEC. The source holds these as a separate data set.

Like-named read-outs stand apart in the source and are kept apart here.

Consider IgG1-Y407A, for which the % monomer in “SEC [1]” came out at 1%; in the series “SEC [2]”, 5%.
As for “IgG1-Y407E (natural mixture of HL and (HL)2)”, the % monomer in “SEC [1]” was found to be 90%; in the series “SEC [2]”, 95%.
